The values below come from patent US11932683B2, “Cellular factors involved in the cytotoxicity of Staphylococcus aureus leukocidins: novel therapeutic targets” (NEW YORK UNIVERSITY, priority 2013, dated 2024).

One data set has as its system monocytes within PBMCs. The experiment in a line: LukED treatment of human PBMCs, CD14/CD3 flow cytometry. It is filed as cell-based. The note with it: CCR5+-gated PBMC; LukED 75 nM plus MVC 100 ng/mL. Here is the method: Isolation of PBMCs. Blood was obtained as buffy coats with the consent of de-identified donors from the New York Blood Center. PBMCs were isolated from blood using a Ficoll-Paque PLUS gradient (GE Amersham) and gated on CCR5^+ cells, followed by anti-CD3 and CD14 cell surface staining for lymphocyte and monocyte populations. Cells were then incubated with LukED (75 nM) in the presence or absence of maraviroc (MVC, 100 ng ml-1).
CCR5 inhibitor and ligands. Maraviroc was obtained through the AIDS Research and Reference Reagent Program, Division of AIDS (NIAID, NIH) and used at a final concentration of 100 ng ml-1.
FACS analysis. Cell staining was performed as described previously (Alonzo et al., “CCR5 is a Receptor for Staphylococcus aureus Leukotoxin ED,” Nature 493:51-55 (2013), which is hereby incorporated by reference in its entirety). FACS data were obtained using FACSDiva software on a LSRII flow cytometer (BD Biosciences). Data was analyzed using FlowJo software (Treestar).
(§1) Leukotoxin treatments. HEK293T cells, THP-1, primary human PBMCs and primary murine peritoneal exudate cells were treated with LukE, LukD or LukED as previously described (Alonzo et al., “CCR5 is a Receptor for Staphylococcus aureus Leukotoxin ED,” Nature 493:51-55 (2013), which is hereby incorporated by reference in its entirety). In all experiments 1-2×10^5 cells were seeded into 96-well plates. […]

Another data set deals with CCR5^+ cells. As to conditions: cited from earlier work.
In data set [1] the target is T1, CXCR2 (Homo sapiens, UniProt P25025).
T1 sequence (P25025 1-360): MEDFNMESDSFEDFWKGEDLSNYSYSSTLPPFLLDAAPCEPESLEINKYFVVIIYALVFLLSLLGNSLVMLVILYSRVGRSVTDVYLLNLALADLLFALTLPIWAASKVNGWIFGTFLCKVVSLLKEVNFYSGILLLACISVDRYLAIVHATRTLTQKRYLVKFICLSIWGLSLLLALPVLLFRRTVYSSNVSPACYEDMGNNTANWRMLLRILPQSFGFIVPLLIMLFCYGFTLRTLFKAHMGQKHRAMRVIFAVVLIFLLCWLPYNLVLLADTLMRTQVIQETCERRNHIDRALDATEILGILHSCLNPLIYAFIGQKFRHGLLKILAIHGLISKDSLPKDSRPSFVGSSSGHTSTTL
The experiment in a line: Pulldown of His-tagged toxin with cell lysates containing HA-tagged CXCR2. Further details: host or cells: HEK293T. The note with it: HA-tagged receptor lysate. It counts as binding. Here is the method:
(§2) Biochemical assays to examine interactions between LukED and CXCR1 or CXCR2. HEK293T cells were transiently transfected with cDNAs encoding N-terminal HA-tagged CXCR1 or CXCR2 (Missouri S&T cDNA Resource Center) using Lipofectamine 2000 (Invitrogen). Forty-eight hours post transfection, cells were detached with PBS containing 5 mM EDTA and membrane proteins were solubilized (approximately 1×10^6 cells per condition) for 1 hour using lysis buffer (PBS+10mM imidazole (Fisher)+1% Brij 010 (Sigma)+1 mM PMSF (Thermo Scientific)+2× protease inhibitor pellets (Roche)). His-tagged LukE and LukD were incubated with equilibrated Ni-NTA resin (Qiagen) for 2 hours, followed by three washes in lysis buffer. Lysates and resin were then incubated together for 2 hours, followed by three washes in lysis buffer and final resuspension of resin in 45 μl of 4×SDS sample buffer. Protein samples were run on 10% SDS-PAGE gels at 80V, followed by transfer to nitrocellulose membranes (GE) for 1 hour at 1 Amp. Membranes were blocked with PBS+0.01% Tween-20+5% non-fat milk for 1 hour and incubated overnight at 4° C. with either anti-His antibody diluted at 1:3,000 in PBS+0.01% Tween-20 for toxins (Cell Sciences) or anti-HA antibody diluted at 1:1,000 in with PBS+0.01% Tween-20+5% non-fat milk for receptors (Covance). […]

Data set [2] has as its system human PMNs. The experiment in a line: Binding and competition assays with GFP-LukE/GFP-LukD on PMNs, flow cytometry. As to conditions: GFP-LukE 300 nM.
Method: Binding and competition assays. For binding assays, increasing concentrations of GFP-LukE or GFP-LukD were added to 5×10^4 human PMNs and incubated for 30 minutes on ice, then washed once in FACS buffer and fixed for 15 minutes at room temperature followed by flow cytometric analysis. Mean fluorescence intensity (MFI) of GFP^+ cells was measured to establish the toxin concentration required to achieve saturable binding. For remaining competition assays, increasing concentrations of either LukE or LukS-PV were co-incubated with a constant saturable concentration of LukE-GFP (300 nM) for 30 minutes. Cells were washed once in FACS buffer, fixed for 15 minutes in FACS fixing buffer, washed again in FACS buffer, and binding was assessed by flow cytometry. The mean GFP fluorescent intensity is represented as % GFP^+, based on the maximal fluorescence observed upon incubation with 300 nM GFP-LukE. […] Cells were washed once in FACS buffer, fixed for 15 minutes in FACS fixing buffer, washed again in FACS buffer, and binding was assessed by flow cytometry as described above. Results for these assays were depicted graphically using GraphPad PRISM software (version 5.0f, GraphPad PRISM Software, Inc.).
Data set [3] addresses T2, CXCR1 (Homo sapiens, UniProt P25024).
T2 sequence (P25024 1-350): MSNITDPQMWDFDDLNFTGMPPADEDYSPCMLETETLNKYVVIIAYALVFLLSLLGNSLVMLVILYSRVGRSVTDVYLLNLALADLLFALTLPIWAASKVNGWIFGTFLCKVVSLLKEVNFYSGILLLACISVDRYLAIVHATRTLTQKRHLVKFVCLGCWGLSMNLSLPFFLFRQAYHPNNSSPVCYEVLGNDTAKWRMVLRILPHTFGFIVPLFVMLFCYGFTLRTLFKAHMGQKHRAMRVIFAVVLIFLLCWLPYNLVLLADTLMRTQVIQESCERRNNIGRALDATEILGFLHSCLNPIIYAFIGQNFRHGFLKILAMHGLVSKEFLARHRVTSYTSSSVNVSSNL
The experiment in a line: Pulldown of His-tagged toxin with cell lysates containing HA-tagged CXCR1. It counts as binding. Further details: host or cells: HEK293T. The note with it: HA-tagged receptor lysate. On the procedure: as §2

In data set [4] the test system is CXCR1 and CXCR2 activation on human PMNs. The data set can be described thus: Calcium mobilization on PMNs (Fluo4-AM, flow cytometry). It counts as cell-based. The note with it: LukE 300 nM. On the procedure: Measurements of calcium mobilization. CXCR1 and CXCR2 activation on human PMNs was evaluated using the fluorescent calcium indicator Fluo4-AM (Invitrogen) as previously described (Alonzo et al., “CCR5 is a Receptor for Staphylococcus aureus Leukotoxin ED,” Nature 493:51-55 (2013), which is hereby incorporated by reference in its entirety). Briefly, cells were incubated for 30 minutes at room temperature with 3 μM of Fluo4-AM in Hank's Balanced Salt Solution (HBSS) followed by three washes in HBSS and equilibration at 37° C. for 30 minutes. Baseline calcium levels were analyzed over time on a flow cytometer for 60 seconds. […] The mean fluorescent intensity over 5-second intervals was plotted for graphical display.

The target in a further data set is T3, DARC (Homo sapiens, UniProt Q16570).
T3 construct: expressed in transfected cells; host or cells: HEK293T
T3 sequence (Q16570 1-336): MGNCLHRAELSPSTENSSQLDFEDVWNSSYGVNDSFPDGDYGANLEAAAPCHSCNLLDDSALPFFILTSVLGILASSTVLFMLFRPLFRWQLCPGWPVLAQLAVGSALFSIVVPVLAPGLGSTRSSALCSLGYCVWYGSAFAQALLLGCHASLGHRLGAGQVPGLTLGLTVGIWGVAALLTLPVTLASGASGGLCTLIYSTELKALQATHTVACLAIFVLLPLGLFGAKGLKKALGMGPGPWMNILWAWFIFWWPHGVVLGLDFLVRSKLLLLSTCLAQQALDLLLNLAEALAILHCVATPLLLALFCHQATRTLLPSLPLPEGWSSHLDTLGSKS
The data set can be described thus: Toxin susceptibility of HEK293T cells transfected with DARC. The note with it: ethidium bromide permeability (1 hr; HlgAB/HlgCB 20 μg/ml). It counts as cell-based.

Data set [5] has as its target T2, CXCR1. The experiment in a line: Toxin susceptibility of HEK293T cells transfected with chemokine receptor CXCR1. As to conditions: viability (600 nM) or ethidium bromide permeability (1 hr; HlgAB/HlgCB 20 μg/ml). Also on record: expressed in transfected cells; host or cells: HEK293T. It is filed as cell-based.
In data set [6] the test system is human PMNs. The experiment in a line: Viability of primary human neutrophils (PMNs) treated with leukotoxins. It is filed as cell-based. The note with it: HlgA or hybrid mixed equimolar with HlgB; CellTiter; n=8 donors.
The target of data set [7] is T1, CXCR2. The experiment in a line: Toxin susceptibility of HEK293T cells transfected with chemokine receptor CXCR2. Also on record: expressed in transfected cells; host or cells: HEK293T. It counts as cell-based. The note with it: viability (600 nM) or ethidium bromide permeability (1 hr; HlgAB/HlgCB 20 μg/ml). On the procedure:
Cell culture conditions and viral transductions. Primary human cells and THP-1 were cultured at 37° C. with 5% CO2 in RPMI supplemented with 10% fetal bovine serum (FBS; Atlanta Biologicals) and penicillin (100 U ml-1) and streptomycin (0.1 mg ml-1) (Mediatech) unless stated otherwise. Overexpression and lentiviral-based knockdown of Cxcr2 or non-target shRNA were performed as previously described (Wan et al., “Cytokine Signals Through PI-3 Kinase Pathway Modulate Th17 Cytokine Production by CCR6+ Human Memory T Cells,” J. Exp. Med. 208:1875-1887 (2011), which is hereby incorporated by reference in its entirety) and maintained in 1.3 μg ml-1 puromycin. HEK293T cells were cultured at 37° C. with 5% CO2 in DMEM (Cellgro) and supplemented as described above.
as §1

The next data set deals with human RBCs. The experiment in a line: LukED-mediated lysis of human red blood cells. It counts as cell-based. As to conditions: n=3 donors.

Turning to Maraviroc [reference compound], in the data set on monocytes within PBMCs, the “protection of monocytes from LukED-mediated death” value was “does not protect monocytes from LukED-mediated death”. In addition, the “block of LukED mediated killing of CCR5+ cells” value in the data set with CCR5^+ cells was “known to block LukED mediated killing of CCR5^+ cells”.
With “LukE: S. aureus Leukocidin E subunit, soluble protein SEQ ID NO:4”, the “complex formation with CXCR2 (pulldown, immunoblot)” value with CXCR2 [1] was “forms complexes with both CXCR1 and CXCR2”. Besides, the “competition with GFP-LukE binding to PMNs” value in the data set with human PMNs [2] is “competed off”. In addition, in the data set with CXCR1 [3], the “complex formation with CXCR1 (pulldown, immunoblot)” value is “forms complexes with both CXCR1 and CXCR2”. Also, the “calcium mobilization on PMNs” value in [4] was “unable to elicit calcium mobilization”.
Turning to “HlgAB: S. aureus γ-hemolysin bicomponent leukotoxin, HlgA (SEQ ID NO:6) plus HlgB (SEQ ID NO:16)”, the “susceptibility of DARC-transfected HEK293T cells to toxin” value with DARC is “rendered cells susceptible”. Also, the “susceptibility of CXCR1-transfected HEK293T cells to toxin” value in the data set with CXCR1 [5] is “rendered cells susceptible”. Further, in the data set with human PMNs [6], the “cytotoxic activity against hPMNs” value is on record as “exhibited potent cytotoxic activity against hPMNs”. For the same molecule, the “susceptibility of CXCR2-transfected HEK293T cells to toxin” value with CXCR2 [7] is “rendered cells susceptible”.

B1: HlgA^LukE-DR4/HlgB: HlgA with its DR4 domain swapped with LukE DR4, mixed equimolar with HlgB (protein)
chain 1: ENKIEDIGQGAEIIKRTQDITSKRLAITQNIQFDFVKDKKYNKDALVVKMQGFISSRTTYSDLKKYPYIKRMIWPFQYNISLKTKDSNVDLINYLPKNKIDSADVSQKLGYNIGGNFQSAPSIGGSGSFNYSKTISYNQKNYVTEVESQNSKGVKWGVKANSFVTPNGQVSAYDQYLFAQSPNGPTGSAREYFAPDNQLPPLIQSGFNPSFITTLSHERGKGDKSEFEITYGRNMDATYAYVTRHRLAVDRKHDAFKNRNVTVKYEVNWKTHEVKIKSITPK
chain 2: EGKITPVSVKKVDDKVTLYKTTATADSDKFKISQILTFNFIKDKSYDKDTLVLKATGNINSGFVKPNPNDYDFSKLYWGAKYNVSISSQSNDSVNVVDYAPKNQNEEFQVQNTLGYTFGGDISISNGLSGGLNGNTAFSETINYKQESYRTTLSRNTNYKNVGWGVEAHKIMNNGWGPYGRDSFHPTYGNELFLAGRQSSAYAGQNFIAQHQMPLLSRSNFNPEFLSVLSHRQDGAKKSKITVTYQREMDLYQIRWNGFYWAGANYKNFKTRTFKSTYEIDWENHKVKLLDTKETENNK
modifications: left off: small tags and cut ends
For B1, the “cytotoxic activity against hPMNs” value in the data set on human PMNs [6] was “exhibited potent cytotoxic activity against hPMNs”.

B2: DARC: purified Duffy antigen receptor for chemokines (OriGene Technologies Inc.) (protein)
chain: T3 sequence (Q16570 1-336)
As for B2, the “inhibition of LukED-mediated lysis of RBCs” value in the data set with human RBCs is reported as “fully neutralize LukED-mediated lysis of RBCs”.
